Reference: patent US12644128B2, “Method for producing HSL protein having catalytic activity for 2-oxoglutaric acid-dependently oxidizing 4-HPPD inhibitor” (National Agriculture and Food Research Organization, priority 2017, dated 2026)
Entries after “also recorded” stand apart in the source; their conditions may differ.

Tests used:
[1] = 4-HPPD inhibitor decomposition activity by HPLC, substrate mesotrione; format: biochemical; conditions: cell-free synthesized protein, not shown in the figures
Procedure: (§1) Then, the amounts of the synthesized proteins obtained in Examples 1 to 4 as described above were estimated as described below, followed by the analysis on the 4-HPPD inhibitor decomposition activities. Cell-free protein synthesis was conducted without adding [^14C]-Leucine Leucine under the same conditions as those in the estimation of the synthesized amount to estimate the protein concentration of this translation reaction liquid from the above-described estimation. Then, 100 μl of the translation reaction liquid was subjected to buffer exchange to a basic translation buffer (30 mM HEPES-KOH (pH=7.8), 100 mM KOAc) by using the illustra MicroSpin G-25 column (manufactured by GE Healthcare). The amounts of the solution before and after the buffer exchange were measured and the estimated protein concentration was corrected. […] Elution was conducted at a flow speed of 1 mL/min and a column temperature of 40° C. under solvent conditions of acetonitrile:water (1% acetic acid)=55:45 or 50:50 (BBC-OH), acetonitrile:water (1% acetic acid)=45:55 (Sulcotrione), acetonitrile:water (1% acetic acid)=45:55 (Mesotrione), acetonitrile:water (1% acetic acid)=55:45 or 50:50 (tefryltrone), and acetonitrile:water (1% acetic acid)=55:45 or 50:50 (Tembotrione), respectively, and the compound was detected at an ultraviolet wavelength of 286 nm.

[2] = 4-HPPD inhibitor decomposition activity by HPLC, substrate tefuryltrione; format: biochemical; conditions: cell-free synthesized protein; FeCl2, ascorbic acid, 2-oxoglutarate; 30° C. for 3 hours; HPLC
Text: (§2) Then, the decomposition reaction of a 4-HPPD inhibitor was examined in the presence of divalent iron ions, 2-oxoglutarate, and molecular oxygen in a test tube by a method described later using the HIS1 protein prepared by this cell-free protein synthesis system.
(§3) Here, in commercially-available wheat germ extracts, dithiothreitol (DTT) is used as a reducing agent and a protein synthesizing reaction liquid also contains DTT. It was confirmed in advance by liquid chromatography that under the coexistence of divalent iron ions and ascorbic acid, which is a stabilizer for the divalent iron ions, DTT generated radical compounds and secondarily affected the enzyme reaction of HIS1 proteins. For this reason, in the present Example, an unreported protein synthesizing reaction system using Tris (2-carboxyethyl) phosphine (TCEP) as a reducing agent instead of DTT was newly constructed, with which the synthesis of HIS1 proteins and the like was conducted to examine the 4-HPPD inhibitor decomposition activity of these. The decomposition activity was analyzed on the reaction liquid of the protein and the 4-HPPD inhibitor using a high-performance liquid chromatography (mobile phase; 0.5% acetic acid water:acetonitrile=65:35, flow rate; 1 mL/min, feeding; isocratic, column; CAPCELL PAK ADME S5). […]
(§4) Cell-free protein synthesis was conducted without adding [^14C]-Leucine Leucine under the same conditions as those in the estimation of the synthesized amount to estimate the protein concentration of this translation reaction liquid from the above-described estimation. […] The amounts of the solution before and after the buffer exchange were measured and the estimated protein concentration was corrected. […]
(§5) Note that the 5-point scale of the decomposition activity in each of FIGS. 12 to 17 is based on a relative value of the degree of decrease in a substrate-derived peak area detected by HPLC where the degree of decrease in the HIS1 protein was designated by 5. […]

[3] = 4-HPPD inhibitor decomposition activity by HPLC, substrate tembotrione; format: biochemical; conditions: cell-free synthesized protein, not shown in the figures
Procedure: as §1

[4] = 4-HPPD inhibitor decomposition activity by HPLC, substrate BBC-OH; format: biochemical; conditions: cell-free synthesized protein; FeCl2, ascorbic acid, 2-oxoglutarate; 30° C. for 3 hours; HPLC
Text: as §2
Here, in commercially-available wheat germ extracts, dithiothreitol (DTT) is used as a reducing agent and a protein synthesizing reaction liquid also contains DTT. It was confirmed in advance by liquid chromatography that under the coexistence of divalent iron ions and ascorbic acid, which is a stabilizer for the divalent iron ions, DTT generated radical compounds and secondarily affected the enzyme reaction of HIS1 proteins. For this reason, in the present Example, an unreported protein synthesizing reaction system using Tris (2-carboxyethyl) phosphine (TCEP) as a reducing agent instead of DTT was newly constructed, with which the synthesis of HIS1 proteins and the like was conducted to examine the 4-HPPD inhibitor decomposition activity of these. The decomposition activity was analyzed on the reaction liquid of the protein and the 4-HPPD inhibitor using a high-performance liquid chromatography (mobile phase; 0.5% acetic acid water:acetonitrile=65:35, flow rate; 1 mL/min, feeding; isocratic, column; CAPCELL PAK ADME S5).
Then, the amounts of the synthesized proteins obtained in Examples 1 to 4 as described above were estimated as described below, followed by the analysis on the 4-HPPD inhibitor decomposition activities.
Cell-free protein synthesis was conducted without adding [^14C]-Leucine Leucine under the same conditions as those in the estimation of the synthesized amount to estimate the protein concentration of this translation reaction liquid from the above-described estimation. Then, 100 μl of the translation reaction liquid was subjected to buffer exchange to a basic translation buffer (30 mM HEPES-KOH (pH=7.8), 100 mM KOAc) by using the illustra MicroSpin G-25 column (manufactured by GE Healthcare). The amounts of the solution before and after the buffer exchange were measured and the estimated protein concentration was corrected.
An enzyme reaction liquid was prepared by mixing 250 mM of HEPES-KOH (pH 7.0) with a mixture liquid, which contained 0.25 mM of FeCl2, 1.5 mM of ascorbic acid, 1.5 mM of 2-oxoglutarate, and 0.75 mM of a substrate, and a translation reaction liquid, which contained a synthesized enzyme protein, in a proportion of 40% and 60%, respectively. After incubation at 30° C. for 3 hours, 100% methanol in the same amount as the enzyme reaction liquid was added and sufficiently mixed, followed by being left to stand for 5 minutes on ice. This was subjected to centrifuge separation (20, 400 g, 20 minutes, 4° C.) and the supernatant was passed through Cosmonice Filter W (0.45 μm) (manufactured by Nacalai Tesque, Inc.) to obtain a sample for high-performance liquid chromatography. The analysis on the substrate and the product before and after the enzyme reaction was conducted by loading a column_Pro C18 (150×4.6 mm I.D.) (manufactured by YMC Co., Ltd.) on a high-performance liquid chromatography device_ELITE LaChrom L-2000 series (manufactured by Hitachi, Ltd.). Elution was conducted at a flow speed of 1 mL/min and a column temperature of 40° C. under solvent conditions of acetonitrile:water (1% acetic acid)=55:45 or 50:50 (BBC-OH), acetonitrile:water (1% acetic acid)=45:55 (Sulcotrione), acetonitrile:water (1% acetic acid)=45:55 (Mesotrione), acetonitrile:water (1% acetic acid)=55:45 or 50:50 (tefryltrone), and acetonitrile:water (1% acetic acid)=55:45 or 50:50 (Tembotrione), respectively, and the compound was detected at an ultraviolet wavelength of 286 nm.
as §5

[5] = 4-HPPD inhibitor decomposition activity by HPLC, substrate sulcotrione; format: biochemical; conditions: cell-free synthesized protein; FeCl2, ascorbic acid, 2-oxoglutarate; 30° C. for 3 hours; HPLC
Text: as §2, §3, §4, §5

[6] = test system: benzobicyclon-susceptible cultivar "Yamadawara"; assay: Resistance to BBC of rice expressing OsHSL1 or its F140H mutant; format: in vivo; conditions: T1 seeds, MS medium containing 0.25 μM BBC, 30° C., bright place, 8 days
Procedure: Next, the efficacy of the F140H mutation was confirmed using rice. Specifically, first, an mHSL1 gene obtained by modifying phenylalanine at position 140 in a rice HSL1 cDNA gene to histidine was prepared. Subsequently, the mutated gene or an HSL1 gene in which the mutation was not introduced was linked to downstream of the 35S promoter and was cloned together with a hygromycin-resistance gene expression cassette in the binary vector. Then, these vectors were each introduced into a benzobicyclon-susceptible cultivar “Yamadawara” by an agrobacterium method and recombinant rice was grown.
The recombinant rice (T1) seeds thus produced and the seeds of the original cultivar “Yamadawara” were tested and seeded on an MS medium containing 0.25 μM BBC in a sterile manner and grown at 30° C. in a bright place for 8 days.

B1: OsHSL1 protein: rice-derived HSL protein, typically a protein having an amino acid sequence of SEQ ID NO: 4 (protein, listed as Oryza sativa)
chain: MADESWRTPAIVQELAAAGVEEPPSRYVLGEKDRSDELVAAELPEPIPVVDLSRLAGADEAAKLRAALQNWGFFLLTNHGVETSLMDDVLNLAREFFNQPIERKRKFSNLIDGKNFQVEGYGTDRVVTQDQILDWSDRLFLRVEPKEERNLAFWPDHPESFRDVLNEYASRTKRIRDDIVQAMSKLLGLDEDYFFDRLNKAPALARFNYYPPCPRPDLVFGVRPHSDGSLFTILLVDEDVGGLQIQRDGKWYNVQVTPNTLLINLGDTMEVLCNGIFRSPVHRVVTNAERERISLAMFYSVNDEKDIGPAAGLLDENRPARYRKVSVGEFRAGIIGKFSRRERYIDSLKI
mesotrione decomposition activity [1]: only very weak decomposition activity
tefuryltrione decomposition activity [2]: lower than that of the HIS1 protein; also recorded: had the decomposition activity, which was less effective than that of the HIS1 protein
tembotrione decomposition activity [3]: only very weak decomposition activity
BBC-OH decomposition activity [4]: hardly observed; also recorded: only very weak decomposition activity
sulcotrione decomposition activity [5]: hardly observed; also recorded: only very weak decomposition activity
BBC resistance (growth condition) [6]: whitened
